From article doi:10.1101/2025.09.04.674342, “Tandem association of CLOCK:BMAL1 complexes on DNA enables recruitment of CBP/p300 through multivalent interactions” (bioRxiv, 2025)
Where “and” joins values, the source holds several entries; their conditions need not be identical. Equal entries are not always repeated. Blank lines part the entries; values can stand above or below the substance they belong to.

Legend:
[1] = molecular target: BMAL1 TAD L606A/L607A (residues 579–626) (mouse) (UniProt Q9WTL8); assay: NMR titration; 15N-1H HSQC of 100 μM 15N BMAL1 TAD WT or L606A/L607A with stepwise additions of CBP KIX (WT or 3mut), TAZ1 or TAZ2; 25°C; 10 mM MES pH 6.5, 50 mM NaCl, 10% D2O; KD from fits of concentration-dependent CSPs, apparent
[2] = molecular target: human histone octamer in the nucleosome core particle (Widom 601 DNA with tandem E-boxes) (human) (UniProt P04908); assay: mass photometry; NCP tandem 6bp 10 nM with CLOCK:BMAL1 bHLH-PAS-AB 60 nM (1:6), 30 min at room temperature; 20 mM Tris-HCl pH 7.5, 100 mM KCl, 0.5 mM TCEP
[3] = molecular target: BMAL1 TAD (residues 579–626) (mouse) (UniProt Q9WTL8); assay: NMR titration; 15N-1H HSQC of 100 μM 15N BMAL1 TAD WT or L606A/L607A with stepwise additions of CBP KIX (WT or 3mut), TAZ1 or TAZ2; 25°C; 10 mM MES pH 6.5, 50 mM NaCl, 10% D2O; KD from fits of concentration-dependent CSPs, apparent
Chain of BMAL1 TAD (residues 579–626) (mouse) (Q9WTL8 585-632): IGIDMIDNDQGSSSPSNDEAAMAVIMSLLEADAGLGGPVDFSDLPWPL

Chain of BMAL1 TAD L606A/L607A (residues 579–626) (mouse) (Q9WTL8 585-632 L612A/L613A): as the sequence (Q9WTL8 585-632) above, with L28A, L29A counted along it

Kd [1]: 190 µM
Substance: CBP KIX domain (residues 586–672) (from UniProt P45481 586-672) (domain or fragment)

stoichiometry N [2]: 2 and 3
Substance: CLOCK:BMAL1 bHLH-PAS-AB heterodimer (from UniProt O08785 26-395; Q9WTL8-4 62-441) (complex)

Kd [3]: 160 µM
Substance: CBP KIX Y650A/A654Q/Y658A (3mut) (from UniProt P45481 586-672) (domain or fragment)
